Assay results: publication PMC11203950, “Folding and Binding Kinetics of the Tandem of SH2 Domains from SHP2” (International Journal of Molecular Sciences, 2024)
One block for each substance: values may come before it.

Legend:
NSH2-CSH2 tandem of SHP2 [1] = target: T1, NSH2-CSH2 tandem of SHP2 (Homo sapiens, UniProt Q06124); experiment: Kinetic displacement of peptide from NSH2-CSH2 tandem by Gab2T; type: binding; settings: for rate constant in displacement by Gab2T: pH 7.2, 10 °C
T1 construct: The constructs encoding the isolated NSH2 domain, the isolated CSH2 domain, and the NSH2-CSH2 tandem were subcloned in a pET28b+ plasmid vector; made in house; host or cells: Escherichia coli BL21 (DE3)
T1 sequence (Q06124 1-220 limits assumed): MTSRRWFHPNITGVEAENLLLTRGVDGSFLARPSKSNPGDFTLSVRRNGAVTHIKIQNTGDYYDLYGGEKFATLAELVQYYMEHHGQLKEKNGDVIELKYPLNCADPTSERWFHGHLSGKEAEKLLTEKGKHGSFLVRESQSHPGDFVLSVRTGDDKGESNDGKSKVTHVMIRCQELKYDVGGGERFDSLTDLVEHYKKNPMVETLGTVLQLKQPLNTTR
Description: (§1) In analogy to our previous works, we performed kinetic binding experiments by challenging the NSH2-CSH2 tandem with peptides mimicking different portions of Gab2, namely Gab2_608–620 (binding the NSH2 domain) and Gab2_637–649 (binding the CSH2 domain). From now on, the two peptides will be named, respectively, Gab2N and Gab2C, while the peptide mimicking the entire segment of Gab2 binding both SH2 domains, and corresponding to Gab2_608–649, will be named Gab2T. To compare data with our previous works, the experiments were performed in buffer Hepes 50 mM, NaCl 300 mM, 2 mM DTT, pH 7.2, at 10 °C, by following the FRET signal occurring through the excitation of the tryptophan residues in the NSH2-CSH2 tandem with light at 280 nm and following the change in fluorescence of the dansyl group covalently attached to the N-terminus of the peptides.
We also resorted to monitoring the binding reaction between the NSH2-CSH2 tandem with the Gab2T peptide. […] To obtain information about the ability of the NSH2-CSH2 to bind Gab2T, we performed kinetic displacement experiments in order to test the ability of Gab2T to displace Gab2N and Gab2C. […] These two values are in great agreement with what was previously calculated in binding experiments of the isolated domains.
Kinetic experiments of binding between the NSH2, CSH2 and NSH2-CSH2 tandem and the peptides mimicking different portions of Gab2 were measured by monitoring FRET between the tryptophan, acting as a donor, and a dansyl group covalently attached to the N-terminus of the peptides, acting as acceptor. […] The excitation wavelength used was 280 nm while the fluorescence emission was collected using a 475 nm cutoff glass filter. […] The observed rate constants were calculated from the average of 3–6 single traces and by fitting the time-course for binding using a single exponential equation y=Aexp−kobs t+c where A is the amplitude of the kinetic trace, kobs the observed rate constant and c the final fluorescence value of the trace. […]

NSH2-CSH2 tandem of SHP2 [2] = target: T1, NSH2-CSH2 tandem of SHP2; experiment: Kinetic binding (stopped-flow, FRET Trp-dansyl) to the NSH2-CSH2 tandem; settings: for kon (microscopic association rate constant): Hepes 50 mM, NaCl 300 mM, 2 mM DTT
Description: as §1
First, to test whether the presence of the contiguous CSH2 affected the affinity of the NSH2 domain for Gab2, we mixed a constant concentration of dansylated Gab2N (1 µM) vs. increasing concentrations of NSH2-CSH2 (ranging from 2 µM to 9 µM). The obtained observed rate constant (kobs) as a function of the concentration of the NSH2-CSH2 tandem was fitted with a linear equation, the slope corresponding to the microscopic association rate constant (kon) and the intercept with the y-axis to the microscopic dissociation rate constant (koff). To directly measure the koff, we performed displacement experiments by rapidly mixing a preincubated complex of NSH2-CSH2 with dansylated Gab2N (both at a constant concentration of 2 µM) versus a high excess of non-dansylated Gab2N (50 µM).
We also resorted to monitoring the binding reaction between the NSH2-CSH2 tandem with the Gab2T peptide. […] To obtain information about the ability of the NSH2-CSH2 to bind Gab2T, we performed kinetic displacement experiments in order to test the ability of Gab2T to displace Gab2N and Gab2C. Thus, in two separate experiments, we rapidly mixed a preincubated complex of NSH2-CSH2 with Gab2N (both at a constant concentration of 2 µM) versus an excess of Gab2T (50 µM) and a preincubated complex of NSH2-CSH2 with Gab2C (both at constant concentrations of 2 µM and 10 µM, respectively) versus an excess of Gab2T (50 µM) (Figure 5C). Importantly, in the two experiments, we could calculate two different rate constants, respectively, of 1.2 ± 0.3 s^−1 in the case of Gab2N, and 82 ± 1 s^−1 in the case of Gab2C. These two values are in great agreement with what was previously calculated in binding experiments of the isolated domains.
Kinetic experiments of binding between the NSH2, CSH2 and NSH2-CSH2 tandem and the peptides mimicking different portions of Gab2 were measured by monitoring FRET between the tryptophan, acting as a donor, and a dansyl group covalently attached to the N-terminus of the peptides, acting as acceptor. The experiments were performed on a single-mixing SX-18 stopped-flow instrument (Applied Photophysics, Leatherhead, UK) recording the change of dansyl emission. The excitation wavelength used was 280 nm while the fluorescence emission was collected using a 475 nm cutoff glass filter. The binding experiments were carried out at 25 °C mixing a constant concentration of dansylated peptide (1 μM) versus increasing concentrations of NSH2, CSH2 and NSH2-CSH2 (ranging from 2 to 10 μM). The buffer used was Hepes 50 mM, NaCl 300 mM, pH 7.2. The observed rate constants were calculated from the average of 3–6 single traces and by fitting the time-course for binding using a single exponential equation y=Aexp−kobs t+c where A is the amplitude of the kinetic trace, kobs the observed rate constant and c the final fluorescence value of the trace. The dependences of kobs as a function of ligand concentrations were fitted with a linear equation kobs=kon ligand+koff where kon is the microscopic association rate constant, and koff the microscopic dissociation rate constant.

NSH2 domain = target: T2, NSH2 domain (Homo sapiens, UniProt Q06124); experiment: Kinetic binding (stopped-flow, FRET Trp-dansyl) to the isolated NSH2 domain
T2 construct: The constructs encoding the isolated NSH2 domain, the isolated CSH2 domain, and the NSH2-CSH2 tandem were subcloned in a pET28b+ plasmid vector; made in house; host or cells: Escherichia coli BL21 (DE3)
T2 sequence (Q06124 6-102 limits assumed): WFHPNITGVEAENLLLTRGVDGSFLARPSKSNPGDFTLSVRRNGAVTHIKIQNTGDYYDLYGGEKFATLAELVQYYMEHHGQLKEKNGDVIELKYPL
Description: as §1, with “peptides. […]” for “peptides.”
Kinetic experiments of binding between the NSH2, CSH2 and NSH2-CSH2 tandem and the peptides mimicking different portions of Gab2 were measured by monitoring FRET between the tryptophan, acting as a donor, and a dansyl group covalently attached to the N-terminus of the peptides, acting as acceptor. […] The excitation wavelength used was 280 nm while the fluorescence emission was collected using a 475 nm cutoff glass filter. […]

- rate constant in displacement by Gab2T (NSH2-CSH2 tandem of SHP2 [1]; preincubated NSH2-CSH2 with Gab2N (both 2 µM) vs excess Gab2T (50 µM)): 1.2 ± 0.3 s⁻¹
- kon (microscopic association rate constant) (NSH2-CSH2 tandem of SHP2 [2]; dansylated Gab2N 1 µM vs NSH2-CSH2 2 to 9 µM, no Gab2C, pH 7.2, 10 °C, excitation 280 nm, average of 3–6 traces): 3.73e+07 ± 800000 M⁻¹ s⁻¹
- kon (microscopic association rate constant) (NSH2-CSH2 tandem of SHP2 [2]; dansylated Gab2N vs NSH2-CSH2, in the presence of 10 µM Gab2C, pH 7.2, 10 °C): 1.64e+07 ± 200000 M⁻¹ s⁻¹
- kon (microscopic association rate constant) (NSH2-CSH2 tandem of SHP2 [2]; dansylated Gab2N vs NSH2-CSH2, in the presence of 20 µM Gab2C, pH 7.2, 10 °C): 1.44e+07 ± 200000 M⁻¹ s⁻¹
- koff (microscopic dissociation rate constant) (NSH2-CSH2 tandem of SHP2 [2]; displacement of preincubated NSH2-CSH2/dansylated Gab2N (both 2 µM) by excess non-dansylated Gab2N (50 µM), pH 7.2, 10 °C): 1.8 ± 0.1 s⁻¹
- KD, calculated as koff/kon, tandem compared to isolated NSH2 domain (NSH2-CSH2 tandem of SHP2 [2]; no Gab2C, pH 7.2): lower KD
- koff (microscopic dissociation rate constant) (NSH2 domain; isolated NSH2 domain, pH 7.2): 1.8 ± 0.1 s⁻¹
Substance: Gab2N: peptide mimicking Gab2_608–620 (binding the NSH2 domain); used dansylated at the N-terminus and non-dansylated

- rate constant in displacement by Gab2T (NSH2-CSH2 tandem of SHP2 [1]; preincubated NSH2-CSH2 (2 µM) with Gab2C (10 µM) vs excess Gab2T (50 µM)): 82 ± 1 s⁻¹
- binding to isolated NSH2 domain, kinetic traces (NSH2 domain; NSH2 domain mixed with different concentrations of Gab2C peptide): no kinetic traces could be recorded
Substance: Gab2C: peptide mimicking Gab2_637–649 (binding the CSH2 domain)

- displacement of Gab2N and Gab2C from NSH2-CSH2 (NSH2-CSH2 tandem of SHP2 [1]; Gab2T 50 µM, pH 7.2): able to displace both peptides
Substance: Gab2T: peptide mimicking the entire segment of Gab2 binding both SH2 domains, corresponding to Gab2_608–649 (STGSVDYLALDFQPSSPSPHRKPSTSSVTSDEKVDYVQVDKE; UniProt Q9UQC2 608-649, looked up, fragment)
- kinetic binding to NSH2-CSH2, fluorescence change (NSH2-CSH2 tandem of SHP2 [2]; Gab2T not available in dansylated form): did not return any change in fluorescence
